Test results reported in US6066472.

Target: myelin basic protein, 32P-labeled on tyrosine residues

In the case of “PTPL1 protein tyrosine phosphatase (from UniProt Q12923) (enzyme)”, the dephosphorylation (radioactivity released as inorganic phosphate, percentage of total input) is reported as > 30%.
